Measurements published in the supplement of paper PMC10567573.

B1: DCAF4 (parent)
chain: DSHILLCLMGLAETPGCATLLPAS
B2: WEE1 (parent)
chain: FLGSSFSPVRCGGPGDASPRGCGA

Variants of: B1
Test: protein stability index of a GFP-peptide fusion (GPS, HEK-293T) (PSI 1-6); higher = more stable
Details: c terminus: a fixed tail appended
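Also: lentivirally expressed fusions sorted by FACS into six bins by GFP to DsRed ratio, PSI derived from sequencing read proportions per bin multiplied by bin number.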

Protein stability index of substitutions, site by site:
L21: W 2.8, S 1.65, T 2.04, P 2.25, V 2.17, N 3.01
A23: Y 1.75, D 2.79, Q 2.72, T 2.42, M 1.66, I 3.11, V 1.49, N 3.13, G 2.37, R 3.3, H 1.66, E 3.69, F 3.27, L 1.69, C 1.89, P 1.79
P22: G 2.29, K 3.2, H 3.65, R 3.03, A 3.01
S24: T 3.75, D 1.92, P 2.36, N 2.69, R 2.1, W 2.76, C 4.56, A 1.39, E 1.74, Y 2.91, I 2.82

Variants of: B2
Test: as above
Details: c terminus: a fixed tail appended

Protein stability index: each site, then its substitutions
G12: Y 2.65, A 1.78, I 1.3, Q 2.07, C 2.04, E 2.03, L 2.44, S 2, W 1.9, V 1.43, P 2.38, D 1.85, R 2.1, H 3.11, M 1.83
V9: T 1.88, A 2.11, P 2.58, K 1.93, C 3.15, Q 1.76, S 1.88, G 2.25, W 2.19, D 2.58, L 1.1, M 2.69, I 1.8
G21: H 1.87, M 1.76, Q 2.17, S 1.67, V 1.74, A 1.92, D 1.64, C 3.5, P 1.91, E 2.06, R 1.96, K 1.81, Y 1.69, F 1.64, T 2.08, L 1.95, I 1.97, N 1.55
G23: L 1.09, M 1.63, N 1.66, E 1.75, I 2.35, D 2.22, K 1.71, S 1.82, V 1.73, C 2.64, P 2.06
L2: S 3.18, A 2.06, K 3.1, Y 2.19, N 2.45, T 1.6, W 2.35, F 2.51, C 1.95, M 2.07
S4: H 1.24, D 2.39, M 2.06, V 1.46, E 2.65, Q 1.86, C 2.19, L 1.48, F 1.93, P 1.82, A 1.79
G13: Y 1.63, K 2.29, H 1.87, D 1.57, F 1.51, N 2.38, S 2.29, Q 2.98, E 1.52, I 2.43, T 1.55
F6: H 2.48, G 3.36, T 2.76, S 2.87, I 3.26, M 3.29, V 2.15, K 3, C 3.15, A 2.17, E 3.91, P 3.52, D 3.42, N 3.06
G3: A 2.19, I 2.82, R 2.34, K 2.16, Q 2.33, D 2.02, N 1.32, T 1.48, V 2.51, F 2.67, C 1.91, H 2.85
P14: K 2.81, L 1.59, E 2.22, Q 2.42, W 1.94, I 2.29, A 1.45, F 3.56, S 2.24, V 1.35, H 1.86, N 1.85, D 1.9, R 2.35
P8: W 2.83, Q 1.64, L 2.15, F 2.49, D 1.97, N 2.05, G 1.81, K 1.66, Y 1.78, A 1.38, I 1.23, T 1.43
C11: V 1.95, T 2.27, E 2.39, K 1.91, F 2.19, P 2.44, G 2.34, Y 2.01, I 2.12, R 2.69, A 2.78, H 2.1, D 3.3, N 2.53
C22: Y 2.1, G 2.13, E 1.95, P 1.59, D 1.61, V 1.73, W 2.96, R 2.27, T 2.47, N 1.8, F 2.48, M 1.87
R20: H 1.33, E 2.28, A 2.27, N 2, W 2.19, M 1.57, P 2.14, L 2.37, Q 2.12, V 1.79, S 1.55
A24: D 2.27, M 1.02, R 1.98, E 1.88, T 2.01, H 1.52, S 1.58, I 1.42, G 1.75, V 1.6, P 1.58, K 2.17, Y 1.75, N 2.28
F1: V 3.77, N 2.48, L 2.56, K 2.95, Q 3.36, A 2.89, G 3.25, I 2.72, W 2.16, R 2.46, H 3.26, T 2.82, C 2.82
D16: Q 1.86, V 1.91, N 1.39, L 1.88, M 2.45, H 2.27, F 2.35, R 2.06, Y 1.23, E 1.93, S 2.09
P19: A 2.78, W 2.52, K 1.93, H 1.25, G 2, V 2.23, Q 1.57, M 1.35, S 1.8, E 2.14, F 2.62, T 1.88, N 2.45, I 1.57, L 2.31
G15: T 2.25, S 2.02, M 1.88, F 2.6, C 1.25, P 1.75, Q 1.45, I 1.82, L 2.68, Y 2.37
S5: R 1.63, E 1.52, Y 2.51, L 2.13, P 2.17, A 1.98, K 1.8, N 1.92, F 4.63, D 2.37
S18: R 1.68, Y 1.65, K 2.07, L 2, V 2.09, A 1.71, D 2.16, H 1.83, C 1.86, F 1.86
A17: W 2.29, T 1.4, Y 1.95, S 1.39, H 1.8, G 2.07, D 2.34, F 1.54, E 1.95, P 2.31, M 1.56, L 1.78, N 1.99, C 2.06
S7: R 2.38, V 1.03, L 1.48, T 2.9, I 2.34, Q 1.93, F 1.12, A 1.4, E 2.5, H 1.81, P 1.36
R10: L 2.52, M 1.64, S 1.8, Q 1.84, V 2, W 4.78, F 2.95, N 2.33, T 2.25, D 2.68
